From publication PMC4314829, “Unraveling the kinetic diversity of microbial 3-dehydroquinate dehydratases of shikimate pathway” (AMB Express, 2015) come the findings set out here.

What all share (conditions): DHQ 0.08 to 1.0 mmol/L; assay buffer, pH and temperature not given
Data set [1] concerns O=C1C[C@@](O)(C(=O)O)C[C@@H](O)[C@@H]1O. The data set is described as follows: purified protein.
Substrate in data set [2]: O=C1C[C@@](O)(C(=O)O)C[C@@H](O)[C@@H]1O
The data set is described as follows: OD234 microplate assay, Lineweaver-Burk. The data set is classed as biochemical, Gluconobacter oxydans. From the text:
OD234 microplate assay, Lineweaver-Burk on DHQase 3007

Substrate in data set [3]: O=C1C[C@@](O)(C(=O)O)C[C@@H](O)[C@@H]1O
The data set is described as follows: OD234 microplate assay, Lineweaver-Burk. The data set is classed as biochemical, Metallosphaera cuprina. From the text:
OD234 microplate assay, Lineweaver-Burk on DHQase 3030

Substrate in data set [4]: O=C1C[C@@](O)(C(=O)O)C[C@@H](O)[C@@H]1O
The data set is described as follows: OD234 microplate assay, Lineweaver-Burk. Type of data set: biochemical, Ruminococcus champanellensis. From the text: OD234 microplate assay, Lineweaver-Burk on DHQase 3027

Substrate in data set [5]: O=C1C[C@@](O)(C(=O)O)C[C@@H](O)[C@@H]1O
The data set is described as follows: OD234 microplate assay, Lineweaver-Burk. The data set is classed as biochemical, Crystallibacter crystallopoietes. From the text:
OD234 microplate assay, Lineweaver-Burk on DHQase 3012

Substrate in data set [6]: O=C1C[C@@](O)(C(=O)O)C[C@@H](O)[C@@H]1O
Briefly: OD234 microplate assay, Lineweaver-Burk. The data set is classed as biochemical, Psychromonas ingrahamii. From the text:
OD234 microplate assay, Lineweaver-Burk on DHQase 3010

Substrate in data set [7]: O=C1C[C@@](O)(C(=O)O)C[C@@H](O)[C@@H]1O
The data set is described as follows: OD234 microplate assay, Lineweaver-Burk. Type of data set: biochemical, Streptomyces acidiscabies. The text has this: OD234 microplate assay, Lineweaver-Burk on DHQase 3016

Substrate in data set [8]: O=C1C[C@@](O)(C(=O)O)C[C@@H](O)[C@@H]1O
The data set is described as follows: OD234 microplate assay, Lineweaver-Burk. The data set is classed as biochemical, Paramagnetospirillum magneticum. From the text: OD234 microplate assay, Lineweaver-Burk on DHQase 3037

Substrate in data set [9]: O=C1C[C@@](O)(C(=O)O)C[C@@H](O)[C@@H]1O
The data set is described as follows: OD234 microplate assay, Lineweaver-Burk. The data set is classed as biochemical, Nocardia brasiliensis. From the text: OD234 microplate assay, Lineweaver-Burk on DHQase 3014

Substrate in data set [10]: O=C1C[C@@](O)(C(=O)O)C[C@@H](O)[C@@H]1O
The data set is described as follows: OD234 microplate assay, Lineweaver-Burk. Type of data set: biochemical, Acetivibrio clariflavus. The text has this:
OD234 microplate assay, Lineweaver-Burk on DHQase 3025

Substrate in data set [11]: O=C1C[C@@](O)(C(=O)O)C[C@@H](O)[C@@H]1O
The data set is described as follows: OD234 microplate assay, Lineweaver-Burk. The data set is classed as biochemical, Natranaerobius thermophilus. The text has this:
OD234 microplate assay, Lineweaver-Burk on DHQase 3026

Substrate in data set [12]: O=C1C[C@@](O)(C(=O)O)C[C@@H](O)[C@@H]1O
Briefly: OD234 microplate assay, Lineweaver-Burk. Type of data set: biochemical, Parageobacillus thermoglucosidasius. The text has this: OD234 microplate assay, Lineweaver-Burk on DHQase 3021

Substrate in data set [13]: O=C1C[C@@](O)(C(=O)O)C[C@@H](O)[C@@H]1O
Briefly: OD234 microplate assay, Lineweaver-Burk. The data set is classed as biochemical, Halanaerobium hydrogeniformans. The text has this:
OD234 microplate assay, Lineweaver-Burk on DHQase 3024

Substrate in data set [14]: O=C1C[C@@](O)(C(=O)O)C[C@@H](O)[C@@H]1O
Briefly: OD234 microplate assay, Lineweaver-Burk. The data set is classed as biochemical, Alcanivorax borkumensis. From the text:
OD234 microplate assay, Lineweaver-Burk on DHQase 3003

Substrate in data set [15]: O=C1C[C@@](O)(C(=O)O)C[C@@H](O)[C@@H]1O
Briefly: OD234 microplate assay, Lineweaver-Burk. Type of data set: biochemical, Thermodesulfobium narugense. From the text:
OD234 microplate assay, Lineweaver-Burk on DHQase 3028

Broadly, the Km is the concentration of substrate that gives half-maximal velocity. Usually Vmax stands for the top rate of the reaction or transport when substrate is in excess. As usually defined, the kcat is the maximal rate divided by the concentration of active sites. Broadly, the kcat/Km is the turnover number divided by the Michaelis constant. On to DHQase 3009 (Psychrobacter sp. PRwf-1), for which, in [1], the Michaelis constant (Km) stood at 203.24 µM, the Vmax turned out to be 254 µM/min, the kcat was 31.7 s⁻¹ and the specificity constant (kcat/Km) stood at 160000 M⁻¹ s⁻¹.

B1: DHQase 3007 (Gluconobacter oxydans 621H) (protein)
chain: MTAPKVLSRGQMKRPLITVLNGPNLNMLGLRQPGIYGHATLDDVEQVCIQAAERLDVAIDFRQTNGEGELVSWVQECRGRADGIVINPAAYGHTSIALLDALLAVELPVIEVHISNIHRREPFRHHTYVSQAAIGVICGLGVRGYAHALQAITDMIEDEG
notes: full length, codon-optimised synthetic gene, pET28a His tag, E. coli BL21(DE3), Ni-NTA
As for B1, in [2], the Michaelis constant (Km) is 777.75 µM, the maximum rate (Vmax) turned out to be 146 µM/min, the kcat came to 77.1 s⁻¹ and the catalytic efficiency (kcat/Km) is 100000 M⁻¹ s⁻¹.

B2: DHQase 3030 (Metallosphaera cuprina Ar-4) (protein)
chain: MFSLMKPEIVVSLPVTRPDDLNKVNKIDGLVELRLDYSTELPNPEELIPFKHKVLVTLRDKEEGGRIKYDVDFKAKYLERLNELGILYDVEASFLERRKIEYVGKIVSAHYFSSLPSTEEIDQLFRKYEGAYTIKVAVASLPGYRELLSYVSGKPNATFMPMSNDPIERLAFSLLGSKLLYTYLESPTAQGQLSYTQAKQILECIFK
notes: as for B1
Consider B2, for which, in data set [3], the Km is 92.76 µM, the Vmax amounted to 68.4 µM/min, the kcat was found to be 3.86 s⁻¹ and the specificity constant (kcat/Km) was 40000 M⁻¹ s⁻¹.

B3: DHQase 3027 (Ruminococcus champanellensis 18P13 = JCM 17042) (protein)
chain: MRILVIHGPNLNLLGEREPGIYGKNDLAHVNGAILTRAKELGVECEVFQSNHEGEILVRLHEARHAFDGVVLNAGAYTHYSYAIRDAIAAIRIPCVEVHISNVHAREEFRHTSVIAPACLGVVCGFGGDSYLLALEGLVRHCAGQKTL
notes: as for B1
For the molecule B3, in data set [4], the Michaelis constant (Km) stood at 255.54 µM, the maximal velocity (Vmax) was 360 µM/min, the kcat is 50.2 s⁻¹ and the kcat/Km turned out to be 200000 M⁻¹ s⁻¹.

B4: DHQase 3012 (Arthrobacter crystallopoietes BAB-32) (protein)
chain: MGNMSEHSTGSSTRKLLVLNGPNLNLLGTREPQIYGSDTLEDAETLAARAAEAHGLAVECLQSNHEGVLIDAIHAARGTAAGIVINPGGYTHTSVALRDALSGVDLPVVEVHISNIHRREEFRHHSYISGIAVAVIAGAGISGYKFAVDLLASRL
notes: as for B1
With B4, in data set [5], the Michaelis constant (Km) stood at 448.50 µM, the maximal velocity (Vmax) amounted to 4000 µM/min, the kcat was determined as 185 s⁻¹ and the kcat/Km amounted to 410000 M⁻¹ s⁻¹.

B5: DHQase 3010 (Psychromonas ingrahamii 37) (protein)
chain: MTQQIKLLVLNGPNLNLLGQREPEVYGSKTLDDIIKALTDEAALQNVALSHLQSNREYELIEKIHDAFEKIDFIIINPAAFTHTSVALRDALLGVNIPFIEVHLSNVHARESFRHHSYLSDIAQGVICGLGAKGYSFALQSAIGKLRNI
notes: as for B1
For B5, in data set [6], the Km stood at 202.55 µM, the maximum rate (Vmax) is 48 µM/min, the kcat worked out at 10.6 s⁻¹ and the kcat/Km came out at 50000 M⁻¹ s⁻¹.

B6: DHQase 3016 (Streptomyces acidiscabies) (protein)
chain: MPRTLANAPIMILNGPNLNLLGQRQPEIYGSDTLADVEALCVKAAATHGGTVDFRQSNHEGELVDWIHEARMDHCGIVINPGAYSHTSVAILDALNTCDGLPVIEVHISNIHKREAFRHHSYVSLRADGVIAGCGVQGYVFGVERVAALAGEGTARA
notes: as for B1
On to B6, for which, in [7], the Km came to 141.53 µM, the Vmax is 745 µM/min, the kcat is 212 s⁻¹ and the kcat/Km is 1.5e+06 M⁻¹ s⁻¹.

B7: DHQase 3037 (Paramagnetospirillum magneticum AMB-1) (protein)
chain: MLGTRQPELYGTETLADIEAACRTHADSLGLTVEFSQTNMEGELVTSIQKCRGRAVGIIINAGAYTHTSVAILDALLAAEVPAIEVHLSNIHQRDSFRHHSYVAKAAKGMICGLGSHGYILALDALARLIKGNAEA
notes: as for B1
For B7, in [8], the Michaelis constant (Km) was 119.97 µM, the Vmax came to 232 µM/min, the kcat turned out to be 73.2 s⁻¹ and the kcat/Km is 610000 M⁻¹ s⁻¹.

B8: DHQase 3014 (Nocardia brasiliensis ATCC 700358) (protein)
chain: MSAPGPILVLNGPNLNMLGTRQPEVYGSATLDDVVELCRQTAERYGREIAAFQSNSEGALIDRIHRARGVESAIVINPGGLTHTSVALRDALVIPEVPIVEVHISNVHAREEFRHHSYISPIATAVVAGMGIQGYAAAIEFLVRSA
notes: as for B1
Take B8: in data set [9], the Km turned out to be 151.51 µM, the maximal velocity (Vmax) turned out to be 216 µM/min, the catalytic constant (kcat) worked out at 3.83 s⁻¹ and the kcat/Km is 30000 M⁻¹ s⁻¹.

B9: DHQase 3025 (Acetivibrio clariflavus DSM 19732) (protein)
chain: MKKILIINGPNLNLLGTREKEVYGTETLDDIAKKVAEEAAKLNVNIEFFQSNHEGDIIDKIHAARGNTDAIIINPGAYTHYSIAIRDAIKAVEIPTIEIHLSNIHAREEFRSHSVIAPVCVGQICGFGSNSYILGLNAAALL
notes: as for B1
For the molecule B9, in data set [10], the Michaelis-Menten constant (Km) came to 368.46 µM, the maximum rate (Vmax) came to 353 µM/min, the kcat stood at 59.6 s⁻¹ and the kcat/Km came out at 160000 M⁻¹ s⁻¹.

B10: DHQase 3026 (Natranaerobius thermophilus JW/NM-WN-LF) (protein)
chain: MKIYVIHGPNINMLGNRESEHYGTQTLEELNSSIIKESESLGIEVEIFQFNSEGDIITKLQEANNYAQGVIINPGAYTHYSIAIRDAIAAISKPVIEVHISNIFNRESFRSHSVIAPVAKGQISGMGFAGYLLALNAFIKTKEG
notes: as for B1
With B10, in data set [11], the Km amounted to 304.54 µM, the Vmax was 177 µM/min, the kcat is 3.8 s⁻¹ and the kcat/Km is 10000 M⁻¹ s⁻¹.

B11: DHQase 3021 (Parageobacillus thermoglucosidasius) (protein)
chain: MAHLLLINGPNLNLLGKREPHIYGSTTLDSLEQELISFANEHGAALTCFQSNHEGAIIDRIHEAEGKYDGIILNAGAFTHYSYAIRDAIASISIPVVEVHISNIHAREPFRHQSVIAPVVAGQIVGFGLAGYRLAILALLEIKGRGDK
notes: as for B1
Turning to B11, in [12], the Michaelis constant (Km) was 133.97 µM, the Vmax is 130 µM/min, the kcat was 5.33 s⁻¹ and the specificity constant (kcat/Km) was 40000 M⁻¹ s⁻¹.

B12: DHQase 3024 (Halanaerobium hydrogeniformans) (protein)
chain: MQKVAVIHGPNLNMLGLREPEIYGKNNLEMVNKNLKRKAKELDFEIEIMQSNHEGEIVDYLHQNFEQLDGVIINPGGLTHTSVILRDALAAVRLPVIEVHISNIHKREEFRHKSLTAAVAVGQITGLGVKGYTLALEGLKSILGREKY
notes: as for B1
For the molecule B12, in data set [13], the Km came out at 526.07 µM, the Vmax was 374 µM/min, the kcat is 75.1 s⁻¹ and the kcat/Km worked out at 140000 M⁻¹ s⁻¹.

B13: DHQase 3003 (Alcanivorax borkumensis SK2) (protein)
chain: MITANNDKFARGPILASILVLHGPNLNLLGTREPDKYGHTTLADINQQLQEQASKAGHHLQHLQSNAEYELVECIHDAHTEGVDFIIINPAAFTHTSVALRDALLAVNIPFIEVHLSNVHARETFRHHSFFSDIAKGVICGLGAIGYALALTAALEQLDD
notes: as for B1
In the case of B13, in data set [14], the Km amounted to 210.71 µM, the maximum rate (Vmax) amounted to 80.4 µM/min, the kcat came to 13.5 s⁻¹ and the kcat/Km stood at 60000 M⁻¹ s⁻¹.

B14: DHQase 3028 (Thermodesulfobium narugense DSM 14796) (protein)
chain: MKKILVINGPNLNMLGTREPNIYGSITLHGLEELILNFAKELEMKVDFFQSNHEGDIIDKIHRTFDAYDAFIINPGAFTHYSYAIRDAIASITIPVIEVHLSNVHAREEFRKSSVIAPVCLGQISGLGELSYIAAIVALDKYLQKLEKRA
notes: as for B1
With B14, in [15], the Michaelis-Menten constant (Km) is 180.72 µM, the maximal velocity (Vmax) came out at 69.6 µM/min, the turnover number (kcat) worked out at 6.88 s⁻¹ and the catalytic efficiency (kcat/Km) turned out to be 40000 M⁻¹ s⁻¹.
